For the assay, the target named is Paracoccidioides americana (Pb03) Cbp1 (Paracoccidioides americana (Pb03)). As to the kind of experiment: crystal structure.

Broadly, the stoichiometry N is the number of molecules, sites or subunits per partner or assembly. For the substance “Paracoccidioides americana (Pb03) Cbp1 (natural protein)”, the stoichiometry N amounted to 2.
